Reference: patent US20220119490A1 (Genentech, published 2022)

T1: ICAM5 (human, UniProt Q9UMF0)
T1 construct: extracellular domain
T1 sequence (extracellular domain construct of the screen, looked up): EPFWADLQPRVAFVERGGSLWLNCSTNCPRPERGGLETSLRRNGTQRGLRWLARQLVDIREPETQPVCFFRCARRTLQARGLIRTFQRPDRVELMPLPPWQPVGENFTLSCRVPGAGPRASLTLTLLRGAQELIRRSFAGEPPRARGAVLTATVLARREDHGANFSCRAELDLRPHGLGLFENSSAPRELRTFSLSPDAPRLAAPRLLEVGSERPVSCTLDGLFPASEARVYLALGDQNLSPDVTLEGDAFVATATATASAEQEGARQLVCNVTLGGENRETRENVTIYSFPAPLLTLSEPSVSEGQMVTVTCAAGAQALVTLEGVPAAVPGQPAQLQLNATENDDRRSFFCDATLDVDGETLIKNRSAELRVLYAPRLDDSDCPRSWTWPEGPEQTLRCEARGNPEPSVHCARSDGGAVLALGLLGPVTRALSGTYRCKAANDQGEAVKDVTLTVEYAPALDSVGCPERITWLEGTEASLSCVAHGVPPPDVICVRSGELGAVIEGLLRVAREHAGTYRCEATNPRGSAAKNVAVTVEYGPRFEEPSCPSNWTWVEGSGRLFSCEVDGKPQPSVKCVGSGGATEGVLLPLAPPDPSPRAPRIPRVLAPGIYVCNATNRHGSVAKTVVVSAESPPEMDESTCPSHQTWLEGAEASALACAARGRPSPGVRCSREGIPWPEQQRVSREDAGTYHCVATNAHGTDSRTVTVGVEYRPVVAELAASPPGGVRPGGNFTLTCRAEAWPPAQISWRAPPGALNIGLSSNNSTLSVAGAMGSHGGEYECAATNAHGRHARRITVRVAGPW

T2: EPHA3 expressed on cells (human, UniProt P29320 21-983)
T2 construct: whole, on cells; also called ephrin type-A receptor 3
T2 sequence (looked up): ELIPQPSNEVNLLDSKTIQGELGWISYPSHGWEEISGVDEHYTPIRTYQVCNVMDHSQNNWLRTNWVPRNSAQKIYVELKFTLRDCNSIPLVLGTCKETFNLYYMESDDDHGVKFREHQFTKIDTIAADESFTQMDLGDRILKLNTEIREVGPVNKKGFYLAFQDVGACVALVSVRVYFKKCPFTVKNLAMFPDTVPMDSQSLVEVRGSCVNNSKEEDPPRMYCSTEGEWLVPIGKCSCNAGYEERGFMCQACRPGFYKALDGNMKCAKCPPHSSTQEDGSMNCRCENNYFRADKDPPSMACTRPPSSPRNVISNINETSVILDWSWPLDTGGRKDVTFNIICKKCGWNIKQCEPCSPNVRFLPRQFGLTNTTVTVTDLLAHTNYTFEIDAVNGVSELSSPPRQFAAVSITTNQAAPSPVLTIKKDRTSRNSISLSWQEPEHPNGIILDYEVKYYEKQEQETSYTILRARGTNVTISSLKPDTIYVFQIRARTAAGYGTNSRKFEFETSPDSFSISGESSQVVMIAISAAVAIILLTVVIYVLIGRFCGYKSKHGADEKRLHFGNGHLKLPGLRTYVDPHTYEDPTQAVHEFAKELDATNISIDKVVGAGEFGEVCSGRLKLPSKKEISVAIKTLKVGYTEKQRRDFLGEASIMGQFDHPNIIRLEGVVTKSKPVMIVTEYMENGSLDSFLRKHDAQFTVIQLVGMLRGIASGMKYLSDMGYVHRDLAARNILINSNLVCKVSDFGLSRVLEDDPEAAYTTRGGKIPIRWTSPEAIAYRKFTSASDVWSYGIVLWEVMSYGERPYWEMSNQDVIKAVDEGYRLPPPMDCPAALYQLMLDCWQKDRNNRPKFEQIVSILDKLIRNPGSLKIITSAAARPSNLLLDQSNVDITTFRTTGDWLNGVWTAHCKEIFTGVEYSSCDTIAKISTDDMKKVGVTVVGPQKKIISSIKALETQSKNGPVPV

T3: CEACAM5 expressed on cells (human, UniProt P06731 35-685)
T3 construct: whole, on cells
T3 sequence (looked up): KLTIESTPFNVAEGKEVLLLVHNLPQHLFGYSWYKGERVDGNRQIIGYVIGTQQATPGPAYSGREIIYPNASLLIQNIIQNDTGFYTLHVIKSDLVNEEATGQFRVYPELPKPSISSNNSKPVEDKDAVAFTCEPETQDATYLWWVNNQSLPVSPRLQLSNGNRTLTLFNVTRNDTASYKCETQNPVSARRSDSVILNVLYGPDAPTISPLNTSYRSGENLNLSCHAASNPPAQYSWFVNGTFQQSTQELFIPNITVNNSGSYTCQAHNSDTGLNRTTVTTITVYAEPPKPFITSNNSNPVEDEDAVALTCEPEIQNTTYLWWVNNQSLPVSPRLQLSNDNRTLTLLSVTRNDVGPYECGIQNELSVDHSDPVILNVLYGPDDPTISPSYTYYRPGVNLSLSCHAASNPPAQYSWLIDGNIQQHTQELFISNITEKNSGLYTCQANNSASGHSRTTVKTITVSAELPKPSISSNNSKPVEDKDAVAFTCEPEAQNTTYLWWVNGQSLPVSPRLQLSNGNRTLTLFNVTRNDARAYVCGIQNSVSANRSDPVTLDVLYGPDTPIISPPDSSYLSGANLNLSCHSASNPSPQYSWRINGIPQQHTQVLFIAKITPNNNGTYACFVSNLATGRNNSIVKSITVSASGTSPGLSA

T4: EPHA3 extracellular domain (human, UniProt P29320 21-541)
T4 construct: extracellular domain; ECD construct; also called ephrin type-A receptor 3
T4 sequence (looked up): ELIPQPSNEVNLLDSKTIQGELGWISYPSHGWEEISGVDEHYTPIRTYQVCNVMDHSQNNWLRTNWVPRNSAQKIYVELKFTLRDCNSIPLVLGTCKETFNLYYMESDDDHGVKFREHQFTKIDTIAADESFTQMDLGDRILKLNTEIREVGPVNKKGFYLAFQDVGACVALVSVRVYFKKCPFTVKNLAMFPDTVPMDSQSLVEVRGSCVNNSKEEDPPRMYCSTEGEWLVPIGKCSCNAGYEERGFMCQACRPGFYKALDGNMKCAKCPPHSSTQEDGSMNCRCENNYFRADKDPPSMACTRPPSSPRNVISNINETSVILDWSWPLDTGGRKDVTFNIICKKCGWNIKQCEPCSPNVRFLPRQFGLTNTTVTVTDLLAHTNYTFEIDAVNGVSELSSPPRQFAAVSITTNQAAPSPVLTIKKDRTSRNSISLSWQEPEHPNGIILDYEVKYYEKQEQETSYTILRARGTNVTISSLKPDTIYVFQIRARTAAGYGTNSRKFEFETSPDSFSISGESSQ

T5: mouse CD177 (mouse, UniProt Q8R2S8 22-796, limits assumed)
T5 sequence (looked up): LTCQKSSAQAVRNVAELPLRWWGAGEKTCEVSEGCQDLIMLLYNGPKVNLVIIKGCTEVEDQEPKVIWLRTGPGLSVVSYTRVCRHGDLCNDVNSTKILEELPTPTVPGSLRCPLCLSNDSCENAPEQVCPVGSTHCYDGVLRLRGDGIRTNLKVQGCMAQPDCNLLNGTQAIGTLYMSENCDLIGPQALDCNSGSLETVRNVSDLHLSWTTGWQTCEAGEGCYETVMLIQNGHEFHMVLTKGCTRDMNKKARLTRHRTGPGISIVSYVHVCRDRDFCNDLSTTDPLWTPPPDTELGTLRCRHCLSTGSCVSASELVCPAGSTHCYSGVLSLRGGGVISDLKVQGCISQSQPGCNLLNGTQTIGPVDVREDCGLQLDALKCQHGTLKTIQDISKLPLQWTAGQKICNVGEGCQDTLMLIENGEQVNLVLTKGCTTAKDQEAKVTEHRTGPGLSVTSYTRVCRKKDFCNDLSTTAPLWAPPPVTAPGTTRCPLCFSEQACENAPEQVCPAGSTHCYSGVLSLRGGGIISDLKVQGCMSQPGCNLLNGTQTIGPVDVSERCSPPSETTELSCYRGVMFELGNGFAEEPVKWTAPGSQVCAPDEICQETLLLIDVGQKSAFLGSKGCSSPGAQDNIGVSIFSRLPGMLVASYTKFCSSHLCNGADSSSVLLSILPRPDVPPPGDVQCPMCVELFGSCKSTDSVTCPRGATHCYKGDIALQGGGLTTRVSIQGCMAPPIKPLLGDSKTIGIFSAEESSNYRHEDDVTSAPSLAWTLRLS

B1: PD-L2 extracellular domain (ligand, human, UniProt Q9BQ51 20-220, looked up)
chain: LFTVTVPKELYIIEHGSNVTLECNFDTGSHVNLGAITASLQKVENDTSPHRERATLLEEQLPLGKASFHIPQVQVRDEGQYQCIIIYGVAWDYKYLTLKVKASYRKINTHILKVPETDEVELTCQATGYPLAEVSWPNVSVPANTSHSRTPEGLYQVTSVLRLKPPPGRNFSCVFWNTHVRELTLASIDLQSQMEPRTHPT
notes: extracellular domain; ECD construct; also called PDCD1LG2; programmed cell death 1 ligand 2
B2: mouse PDPN (receptor, UniProt Q62011 23-141, looked up)
chain: GTIGVNEDDIVTPGTGDGMVPPGIEDKITTTGATGGLNESTGKAPLVPTQRERGTKPPLEELSTSATSDHDHREHESTTTVKVVTSHSVDKKTSHPNRDNAGDETQTTDKKDGLPVVTL
B3: CEACAM4 expressed on cells (receptor, human, UniProt O75871 36-244, looked up)
chain: FTIEALPSSAAEGKDVLLLACNISETIQAYYWHKGKTAEGSPLIAGYITDIQANIPGAAYSGRETVYPNGSLLFQNITLEDAGSYTLRTINASYDSDQATGQLHVHQNNVPGLPVGAVAGIVTGVLVGVALVAALVCFLLLSRTGRASIQRDLREQPPPASTPGHGPSHRSTFSAPLPSPRTATPIYEELLYSDANIYCQIDHKADVVS
notes: whole, on cells
B4: CEACAM4 extracellular domain (receptor, human, UniProt O75871 36-155, looked up)
chain: FTIEALPSSAAEGKDVLLLACNISETIQAYYWHKGKTAEGSPLIAGYITDIQANIPGAAYSGRETVYPNGSLLFQNITLEDAGSYTLRTINASYDSDQATGQLHVHQNNVPGLPVGAVAG
notes: extracellular domain; ECD construct

Assays:
[1] = target: T1, ICAM5; test: extracellular interaction screen, normalized intensity; labelled dot against the clone named on the axis; which is query and which prey is not given; colour of the predicted class lost
[2] = target: T6, PD-L1 expressed on cells (human, UniProt Q9NZQ7 19-290); test: cell surface interaction assay: PD-L2 ECD tetramer on transfected cells (FIG. 4F)
T6 construct: whole, on cells; also called CD274

[3] = target: T2, EPHA3 expressed on cells; test: as above
[4] = target: T3, CEACAM5 expressed on cells; test: as above
[5] = target: B3; test: as above
[6] = target: T4, EPHA3 extracellular domain; test: SPR, EPHA3 ECD-Fc immobilized, ECD-Fc analytes at 250 nM
From the text: (§1) An irrelevant Fc-tagged protein was used as a control. Sensorgram shown is representative of at least 3 independent runs.

[7] = target: T5, mouse CD177; test: SPR
[8] = target: T7, PD-L1 extracellular domain (human, UniProt Q9NZQ7 19-238); test: cell surface interaction assay: PD-L1 ECD tetramer on transfected cells (FIG. 4F)
T7 construct: extracellular domain; ECD construct; also called CD274; programmed cell death 1 ligand 1

[9] = target: B1; test: SPR, calculated in equilibrium; PD-L2 immobilized, His-tagged CEACAM4 ECD as analyte (FIG. 10E)
[10] = target: T7, PD-L1 extracellular domain; test: SPR, CEACAM4 ECD-Fc immobilized, ECD-Fc analytes at 250 nM
From the text: as §1

[11] = target: T8, PD-1 extracellular domain (human, UniProt Q15116 25-170); test: as above
T8 construct: extracellular domain; ECD construct; also called PDCD1; programmed cell death 1
From the text: as §1

T7 sequence (Q9NZQ7 19-238): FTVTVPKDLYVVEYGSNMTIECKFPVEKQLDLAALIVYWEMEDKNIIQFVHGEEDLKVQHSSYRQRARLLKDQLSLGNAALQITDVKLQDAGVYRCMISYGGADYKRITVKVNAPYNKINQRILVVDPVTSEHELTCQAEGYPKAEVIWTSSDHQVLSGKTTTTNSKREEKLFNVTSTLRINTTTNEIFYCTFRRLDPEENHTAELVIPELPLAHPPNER
T8 sequence (Q15116 25-170): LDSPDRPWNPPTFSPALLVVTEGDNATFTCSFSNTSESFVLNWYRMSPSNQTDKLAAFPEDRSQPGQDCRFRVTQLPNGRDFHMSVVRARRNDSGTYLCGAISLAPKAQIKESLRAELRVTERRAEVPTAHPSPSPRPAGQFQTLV
T6 sequence (Q9NZQ7 19-290): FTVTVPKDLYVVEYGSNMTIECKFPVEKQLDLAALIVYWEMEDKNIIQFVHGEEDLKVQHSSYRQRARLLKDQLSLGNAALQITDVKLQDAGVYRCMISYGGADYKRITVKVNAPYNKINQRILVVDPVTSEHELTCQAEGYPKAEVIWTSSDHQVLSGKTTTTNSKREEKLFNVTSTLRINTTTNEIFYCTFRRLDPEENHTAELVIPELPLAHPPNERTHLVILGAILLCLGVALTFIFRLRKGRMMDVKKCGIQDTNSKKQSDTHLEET

B1
binding result [1]: binds
binding result [2]: binds
binding result [3]: no binding
binding result [4]: no binding
binding result [5]: binds
binding result [6]: no binding (tested: 250 nM)

B2
binding result [7]: no binding

B3
binding result [8]: no binding

B4
Kd [9]: 84 nM
binding result [10]: no binding (tested: 250 nM)
binding result [11]: no binding (tested: 250 nM)
